Assay results reported in patent US20150299296A1 (Chugai, published 2015).

Legend:
[1] = biological target: T1, human FcγRIIb extracellular domain with C-terminal His tag (human, UniProt P31994 43-217); assay: SPR
T1 construct: extracellular domain; For crystals it was expressed with kifunensine and trimmed with Endo F1; also called FcgRIIb; FcγRIIb extracellular region
T1 sequence (looked up): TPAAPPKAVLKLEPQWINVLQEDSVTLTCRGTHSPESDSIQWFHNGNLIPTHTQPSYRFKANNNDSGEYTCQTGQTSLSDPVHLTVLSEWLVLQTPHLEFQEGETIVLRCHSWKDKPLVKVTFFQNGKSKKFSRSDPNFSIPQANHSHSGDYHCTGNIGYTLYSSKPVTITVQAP

[2] = biological target: T2, human FcγRIIIa type V extracellular domain with C-terminal His tag (human, UniProt P08637 17-208); assay: SPR; IL6R-BF648/IL6R-L=100
T2 construct: extracellular domain; also called FcgRIIIaV; FcγRIIIaV
T2 sequence (P08637 17-208 F176V): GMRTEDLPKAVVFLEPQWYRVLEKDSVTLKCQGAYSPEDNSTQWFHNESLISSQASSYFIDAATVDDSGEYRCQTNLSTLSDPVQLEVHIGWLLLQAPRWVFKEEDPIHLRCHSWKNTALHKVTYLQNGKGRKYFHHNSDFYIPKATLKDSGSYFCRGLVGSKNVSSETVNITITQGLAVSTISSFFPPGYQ

[3] = biological target: T3, human FcγRIIa type H extracellular domain with C-terminal His tag (human, UniProt P12318 34-217); assay: SPR; IL6R-BF648/IL6R-L=100
T3 construct: extracellular domain; also called FcgRIIaH; FcγRIIa H
T3 sequence (looked up): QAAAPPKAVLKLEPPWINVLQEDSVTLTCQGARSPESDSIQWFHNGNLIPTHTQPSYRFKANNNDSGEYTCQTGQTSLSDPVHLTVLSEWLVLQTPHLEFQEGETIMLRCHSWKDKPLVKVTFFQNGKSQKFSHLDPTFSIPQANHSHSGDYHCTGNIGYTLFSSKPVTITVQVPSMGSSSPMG

[4] = biological target: T4, human FcγRIa extracellular domain with C-terminal His tag (human, UniProt P12314 16-292); assay: SPR; IL6R-BF648/IL6R-L=100
T4 construct: Whole entry named; also called FcgRIa; FcgIa
T4 sequence (P12314 16-292): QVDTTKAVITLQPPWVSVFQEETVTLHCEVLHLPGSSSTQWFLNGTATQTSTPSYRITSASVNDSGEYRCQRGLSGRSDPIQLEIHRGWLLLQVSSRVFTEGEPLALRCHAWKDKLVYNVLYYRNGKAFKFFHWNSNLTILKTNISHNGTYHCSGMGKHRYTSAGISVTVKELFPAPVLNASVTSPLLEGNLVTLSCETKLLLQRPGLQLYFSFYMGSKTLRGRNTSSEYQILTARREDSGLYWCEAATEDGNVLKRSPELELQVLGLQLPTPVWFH

[5] = biological target: T1, human FcγRIIb extracellular domain with …; assay: SPR; IL6R-BF648/IL6R-L=100

| Binder | binding result [1] | relative binding activity [2] | relative binding activity [3] | relative binding activity [4] | relative binding activity [5] |
| --- | --- | --- | --- | --- | --- |
| IL6R-BP423/IL6R-L (antibody, human IgG1, kappa) heavy: QVQLQESGPGLVKPSETLSLTCAVSGHSISHDHAWSWVRQPPGEGLEWIGFISYSGITNYNPSLQGRVTISRDNSKNTLYLQMNSLRAEDTAVYYCARSLARTTAMDYWGEGTLVTVSSASTKGPSVFPLAPSSKSTSGGTAALGCLVKDYFPEPVTVSWNSGALTSGVHTFPAVLQSSGLYSLSSVVTVPSSSLGTQTYICNVNHKPSNTKVDKKVEPKSCDKTHTCPPCPAPDLLGDDSVFLFPPKPKDTLMISRTPEVTCVVVDVAEEDGEVKFNWYVDGVEVHNAKTKPREEQYNSTYRVVSVLTVLHQDWLNGKEYKCKVSNKALPRPIEKTISKAKGQPREPQVYTLPPSRDELTKNQVSLTCLVKGFYPSDIAVEWESNGQPENNYKTTPPVLDSDGSFFLYSKLTVDKSRWQQGNVFSCSVMHEALHNHYTQESLSLSP light: not shown | binds | – | – | – | – |
| IL6R-BP429/IL6R-L (antibody, human IgG1, kappa) heavy: QVQLQESGPGLVKPSETLSLTCAVSGHSISHDHAWSWVRQPPGEGLEWIGFISYSGITNYNPSLQGRVTISRDNSKNTLYLQMNSLRAEDTAVYYCARSLARTTAMDYWGEGTLVTVSSASTKGPSVFPLAPSSKSTSGGTAALGCLVKDYFPEPVTVSWNSGALTSGVHTFPAVLQSSGLYSLSSVVTVPSSSLGTQTYICNVNHKPSNTKVDKKVEPKSCDKTHTCPPCPAPDLLGDDSVFLFPPKPKDTLMISRTPEVTCVVIDVGEEDGEVKFNWYVDGVEVHNAKTKPREEQYNSTYRVVSVLTVLHQDWLNGKEYKCKVSNKALPRPIEKTISKAKGQPREPQVYTLPPSRDELTKNQVSLTCLVKGFYPSDIAVEWESNGQPENNYKTTPPVLDSDGSFFLYSKLTVDKSRWQQGNVFSCSVMHEALHNHYTQESLSLSP light: not shown | binds | – | – | – | – |
| IL6R-BP437/IL6R-L (antibody, human IgG1, kappa) heavy: QVQLQESGPGLVKPSETLSLTCAVSGHSISHDHAWSWVRQPPGEGLEWIGFISYSGITNYNPSLQGRVTISRDNSKNTLYLQMNSLRAEDTAVYYCARSLARTTAMDYWGEGTLVTVSSASTKGPSVFPLAPSSKSTSGGTAALGCLVKDYFPEPVTVSWNSGALTSGVHTFPAVLQSSGLYSLSSVVTVPSSSLGTQTYICNVNHKPSNTKVDKKVEPKSCDKTHTCPPCPAPELLGDDSVFLFPPKPKDTLMISRTPEVTCVVVDVAEEDGEVKFNWYVDGVEVHNAKTKPREEQDNSTYRVVSVLTVLHQDWLNGKEYKCKVSNKALPRPTEKTISKAKGQPREPQVYTLPPSRDELTKNQVSLTCLVKGFYPSDIAVEWESNGQPENNYKTTPPVLDSDGSFFLYSKLTVDKSRWQQGNVFSCSVMHEALHNHYTQESLSLSP light: not shown | binds | – | – | – | – |
| IL6R-BP445/IL6R-L (antibody, human IgG1, kappa) heavy: QVQLQESGPGLVKPSETLSLTCAVSGHSISHDHAWSWVRQPPGEGLEWIGFISYSGITNYNPSLQGRVTISRDNSKNTLYLQMNSLRAEDTAVYYCARSLARTTAMDYWGEGTLVTVSSASTKGPSVFPLAPSSKSTSGGTAALGCLVKDYFPEPVTVSWNSGALTSGVHTFPAVLQSSGLYSLSSVVTVPSSSLGTQTYICNVNHKPSNTKVDKKVEPKSCDKTHTCPPCPAPDLLGDDSVFLFPPKPKDTLMISRTPEVTCVVIDVAEEDGEVKFNWYVDGVEVHNAKTKPREEQYNSTYRVVSVLTVLHQDWLNGKEYKCKVSNKALPRPIEKTISKAKGQPREPQVYTLPPSRDELTKNQVSLTCLVKGFYPSDIAVEWESNGQPENNYKTTPPVLDSDGSFFLYSKLTVDKSRWQQGNVFSCSVMHEALHNHYTQESLSLSP light: not shown | binds | – | – | – | – |
| IL6R-BP199/IL6R-L (antibody, human IgG1, kappa, name in EU numbering) heavy: QVQLQESGPGLVKPSETLSLTCAVSGHSISHDHAWSWVRQPPGEGLEWIGFISYSGITNYNPSLQGRVTISRDNSKNTLYLQMNSLRAEDTAVYYCARSLARTTAMDYWGEGTLVTVSSASTKGPSVFPLAPSSKSTSGGTAALGCLVKDYFPEPVTVSWNSGALTSGVHTFPAVLQSSGLYSLSSVVTVPSSSLGTQTYICNVNHKPSNTKVDKKVEPKSCDKTHTCPPCPAPDLLGGDSVFLFPPKPKDTLMISRTPEVTCVVVDVSHEDPEVKFNWYVDGVEVHNAKTKPREEQYNSTYRVVSVLTVLHQDWLNGKEYKCKVSNAALPRPIEKTISKAKGQPREPQVYTLPPSRDELTKNQVSLTCLVKGFYPSDIAVEWESNGQPENNYKTTPPVLDSDGSFFLYSKLTVDKSRWQQGNVFSCSVMHEALHNHYTQESLSLSP light: not shown | – | 103 | 116 | 112 | 144 |
| IL6R-BP203/IL6R-L (antibody, human IgG1, kappa, name in EU numbering) heavy: QVQLQESGPGLVKPSETLSLTCAVSGHSISHDHAWSWVRQPPGEGLEWIGFISYSGITNYNPSLQGRVTISRDNSKNTLYLQMNSLRAEDTAVYYCARSLARTTAMDYWGEGTLVTVSSASTKGPSVFPLAPSSKSTSGGTAALGCLVKDYFPEPVTVSWNSGALTSGVHTFPAVLQSSGLYSLSSVVTVPSSSLGTQTYICNVNHKPSNTKVDKKVEPKSCDKTHTCPPCPAPELLGDDSVFLFPPKPKDTLMISRTPEVTCVVVDVSHEDGEVKFNWYVDGVEVHNAKTKPREEQYNSTYRVVSVLTVLHQDWLNGKEYKCKVSNKALPRPIEKTISKAKGQPREPQVYTLPPSRDELTKNQVSLTCLVKGFYPSDIAVEWESNGQPENNYKTTPPVLDSDGSFFLYSKLTVDKSRWQQGNVFSCSVMHEALHNHYTQESLSLSP light: not shown | – | 88 | 255 | 35 | 185 |
| IL6R-BP206/IL6R-L (antibody, human IgG1, kappa, name in EU numbering) heavy: QVQLQESGPGLVKPSETLSLTCAVSGHSISHDHAWSWVRQPPGEGLEWIGFISYSGITNYNPSLQGRVTISRDNSKNTLYLQMNSLRAEDTAVYYCARSLARTTAMDYWGEGTLVTVSSASTKGPSVFPLAPSSKSTSGGTAALGCLVKDYFPEPVTVSWNSGALTSGVHTFPAVLQSSGLYSLSSVVTVPSSSLGTQTYICNVNHKPSNTKVDKKVEPKSCDKTHTCPPCPAPDLLGGDSVFLFPPKPKDTLMISRTPEVTCVVVDVSHEDGEVKFNWYVDGVEVHNAKTKPREEQYNSTYRVVSVLTVLHQDWLNGKEYKCKVSNKALPRPIEKTISKAKGQPREPQVYTLPPSRDELTKNQVSLTCLVKGFYPSDIAVEWESNGQPENNYKTTPPVLDSDGSFFLYSKLTVDKSRWQQGNVFSCSVMHEALHNHYTQESLSLSP light: not shown | – | 92 | 123 | 101 | 168 |
| IL6R-BP207/IL6R-L (antibody, human IgG1, kappa, name in EU numbering) heavy: QVQLQESGPGLVKPSETLSLTCAVSGHSISHDHAWSWVRQPPGEGLEWIGFISYSGITNYNPSLQGRVTISRDNSKNTLYLQMNSLRAEDTAVYYCARSLARTTAMDYWGEGTLVTVSSASTKGPSVFPLAPSSKSTSGGTAALGCLVKDYFPEPVTVSWNSGALTSGVHTFPAVLQSSGLYSLSSVVTVPSSSLGTQTYICNVNHKPSNTKVDKKVEPKSCDKTHTCPPCPAPDLLGGDSVFLFPPKPKDTLMISRTPEVTCVVVDVSHEDPEVKFNWYVDGVEVHNAKTKPREEQYNSTYRVVSVLTVLHQDWLNGKEYKCKVSNKALPRPIEKTISKAKGQPREPQVYTLPPSRDELTKNQVSLTCLVKGFYPSDIAVEWESNGQPENNYKTTPPVLDSDGSFFLYSKLTVDKSRWQQGNVFSCSVMHEALHNHYTQESLSLSP light: not shown | – | 97 | 103 | 74 | 124 |
| IL6R-BP209/IL6R-L (antibody, human IgG1, kappa, name in EU numbering) heavy: QVQLQESGPGLVKPSETLSLTCAVSGHSISHDHAWSWVRQPPGEGLEWIGFISYSGITNYNPSLQGRVTISRDNSKNTLYLQMNSLRAEDTAVYYCARSLARTTAMDYWGEGTLVTVSSASTKGPSVFPLAPSSKSTSGGTAALGCLVKDYFPEPVTVSWNSGALTSGVHTFPAVLQSSGLYSLSSVVTVPSSSLGTQTYICNVNHKPSNTKVDKKVEPKSCDKTHTCPPCPAPELLGDDSVFLFPPKPKDTLMISRTPEVTCVVVDVSDEDGEVKFNWYVDGVEVHNAKTKPREEQYNSTYRVVSVLTVLHQDWLNGKEYKCKVSNAALPRPIEKTISKAKGQPREPQVYTLPPSRDELTKNQVSLTCLVKGFYPSDIAVEWESNGQPENNYKTTPPVLDSDGSFFLYSKLTVDKSRWQQGNVFSCSVMHEALHNHYTQESLSLSP light: not shown | – | 153 | 267 | 68 | 186 |
| IL6R-BP213/IL6R-L (antibody, human IgG1, kappa, name in EU numbering) heavy: QVQLQESGPGLVKPSETLSLTCAVSGHSISHDHAWSWVRQPPGEGLEWIGFISYSGITNYNPSLQGRVTISRDNSKNTLYLQMNSLRAEDTAVYYCARSLARTTAMDYWGEGTLVTVSSASTKGPSVFPLAPSSKSTSGGTAALGCLVKDYFPEPVTVSWNSGALTSGVHTFPAVLQSSGLYSLSSVVTVPSSSLGTQTYICNVNHKPSNTKVDKKVEPKSCDKTHTCPPCPAPDLLGGDSVFLFPPKPKDTLMISRTPEVTCVVVDVSDEDGEVKFNWYVDGVEVHNAKTKPREEQYNSTYRVVSVLTVLHQDWLNGKEYKCKVSNKALPRPIEKTISKAKGQPREPQVYTLPPSRDELTKNQVSLTCLVKGFYPSDIAVEWESNGQPENNYKTTPPVLDSDGSFFLYSKLTVDKSRWQQGNVFSCSVMHEALHNHYTQESLSLSP light: not shown | – | 100 | 123 | 118 | 169 |
